According to patent US20170298121A1 (GlaxoSmithKline, published 2017):

Molecular target: T1, Rat Serum Albumin (rat, UniProt P02770 25-608)
T1 construct: Bought purified serum albumin; coupled to CM5 chips for BiaCore; also called RSA; rat SA
Assay: SPR (BiaCore)

T1 sequence (P02770 25-608 limits assumed): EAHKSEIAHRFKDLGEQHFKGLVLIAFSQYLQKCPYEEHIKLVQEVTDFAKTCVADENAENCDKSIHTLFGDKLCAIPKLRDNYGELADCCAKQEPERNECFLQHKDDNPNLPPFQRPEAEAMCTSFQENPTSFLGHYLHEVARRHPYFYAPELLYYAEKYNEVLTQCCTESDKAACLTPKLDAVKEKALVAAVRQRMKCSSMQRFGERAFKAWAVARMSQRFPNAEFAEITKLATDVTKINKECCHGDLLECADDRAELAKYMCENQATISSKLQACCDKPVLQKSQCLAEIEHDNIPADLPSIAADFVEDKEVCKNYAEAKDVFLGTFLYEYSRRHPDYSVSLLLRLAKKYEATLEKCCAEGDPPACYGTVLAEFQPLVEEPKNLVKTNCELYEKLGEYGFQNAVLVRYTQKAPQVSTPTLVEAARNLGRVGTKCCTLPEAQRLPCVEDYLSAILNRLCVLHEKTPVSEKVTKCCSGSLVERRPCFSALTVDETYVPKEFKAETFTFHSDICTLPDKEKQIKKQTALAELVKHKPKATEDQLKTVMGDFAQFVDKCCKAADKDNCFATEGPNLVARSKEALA

| Binder | fold decrease in affinity against the unfused ALBUDAB |
| --- | --- |
| DOM7h-11-12/DOM1m-21-23 fusion DMS number 5516 (other, DOM1m-21-23 - ASTSGPS - DOM7h-11-12 - myc tag; also called DMS5516) EVQLLESGGGLVQPGGSLRLSCAASGFTFNRYSMGWLRQAPGKGLEWVSRIDSYGRGTYYEDPVKGRFSISRDNSKNTLYLQMNSLRAEDTAVYYCAKISQFGSNAFDYWGQGTQVTVSSASTSGPSDIQMTQSPSSLSASVGDRVTITCRASRPIGTMLSWYQQKPGKAPKLLILFGSRLQSGVPSRFSGSGSGTDFTLTISSLQPEDFATYYCAQAGTHPTTFGQGTKVEIKRAAAEQKLISEEDLN | 2 fold |
| DOM7h-11-15/DOM1m-21-23 fusion DMS number 5517 (other, DOM1m-21-23 - ASTSGPS - DOM7h-11-15 - myc tag; also called DMS5517; DOM1m21-23-DOM7h11-15) EVQLLESGGGLVQPGGSLRLSCAASGFTFNRYSMGWLRQAPGKGLEWVSRIDSYGRGTYYEDPVKGRFSISRDNSKNTLYLQMNSLRAEDTAVYYCAKISQFGSNAFDYWGQGTQVTVSSASTSGPSDIQMTQSPSSLSASVGDRVTITCRASRPIGTMLSWYQQKPGKAPKLLILAFSRLQSGVPSRFSGSGSGTDFTLTISSLQPEDFATYYCAQAGTHPTTFGQGTKVEIKRAAAEQKLISEEDLN | 2 fold |
